In article PMC4032163:

Legend:
[1] = target: BG505 SOSIP.664 gp140 trimer (HIV-1 subtype A transmitted/founder virus BG505); assay: native gel or EMSA; BN-PAGE, Coomassie blue staining, of 2G12-affinity-purified Env proteins and of SEC-purified trimers from stable cell lines and transient transfection
[2] = target: uncleaved CZA97.012 gp140 (HIV-1 subtype C, CZA97.012 | not stated); assay: SEC

| Substance | stoichiometry N [1] | stoichiometry N [2] |
| --- | --- | --- |
| BG505 SOSIP.664 gp140 trimer (complex) | 3 | – |
| uncleaved CZA97.012 gp140 | – | 3 |
